In PMC5700546:
Where two headings read alike, the source gives them in different places.

Columns and labels:
Test in all cases: AUC; sedimentation velocity, interference optics; 40 uM protein in 25 mM TES, 100 mM NaCl, 100 uM EDTA, pH 7.4; apo samples and samples with 250 uM Cu2+ and Ca2+; no reducing agent; c(s) distribution by SedFit; self-association (monomer, dimer, higher oligomers)
[1] = molecular target: human S100A5 C43S/C79S, Cysteine-free variant (human) (UniProt P33763)
[2] = molecular target: human S100A5, wildtype (human) (UniProt P33763)
[3] = molecular target: human S100A5, wildtype (human) (UniProt P33763); remark: listed apart in the source

Substance “human S100A5 C43S/C79S, Cysteine-free variant (from UniProt P33763 1-92) (natural protein)” has a stoichiometry N [1] of 2.

Work on “human S100A5, wildtype (from UniProt P33763 1-92) (natural protein)” yielded a stoichiometry N [2] greater than 12 and a stoichiometry N [3] of 2.
